Measurements: patent US20100279930A1 (published 2010)
Where a chain is given by its changes, count along the chain named. No end group written: not given here.

B1: compound of SEQ ID NO:62 (code 6659) (peptide)
peptide: APLEPVYPGDNATPEQMAQYAADLRRYINMLTRPHRY
modifications: ends and bridges not checked
notes: Synthetic analogue of human PP; cited for changes at positions 34-36
B2: compound of SEQ ID NO:24 (code 6453) (peptide)
peptide: APLEPVYPGDNATPEQMAQYAADLRRYINMLTRQRY
modifications: ends and bridges not checked
notes: as for B1
B3: compound of SEQ ID NO:259 (code 4055713) (peptide)
peptide: B2 peptide with M30I, Q34P
modifications: ends and bridges not checked
notes: Synthetic analogue of human PP; cited for changes at positions 29-31
B4: compound of SEQ ID NO:275 (code 4055745) (peptide)
peptide: B2 peptide with V6F, Q34P
modifications: ends and bridges not checked
notes: Synthetic analogue of human PP; cited for a change at position 6
B5: compound of SEQ ID NO:260 (code 4055714) (peptide)
peptide: B2 peptide with M30V, Q34P
modifications: ends and bridges not checked
notes: as for B3
B6: compound of SEQ ID NO:167 (code 7214) (peptide)
peptide: B2 peptide with D23A, M30K, Q34P
notes: Synthetic analogue of human PP with Ala at position 23 and Lys at position 30
B7: compound of SEQ ID NO:261 (code 4055715) (peptide)
peptide: B2 peptide with M30F, Q34P
modifications: ends and bridges not checked
notes: as for B3
B8: compound of SEQ ID NO:255 (code 4055708) (peptide)
peptide: B2 peptide with Q34P, Y36F
modifications: ends and bridges not checked
notes: as for B1
B9: compound of SEQ ID NO:276 (4055746) (peptide)
peptide: B2 peptide with V6E, Q34P
modifications: ends and bridges not checked
notes: as for B4
B10: compound of SEQ ID NO:52 (code 6647) (peptide)
peptide: KAPLEPVYPGDNATPEQMAQYAADLRRYINMLTRPRY
notes: Synthetic analogue of human PP with an additional amino acid at position 0
B11: compound of SEQ ID NO:53 (code 6650) (peptide)
peptide: B10 peptide with K1H
notes: as for B10
B12: compound of SEQ ID NO:171 (code 7218) (peptide)
peptide: B10 peptide with K1A, M31K
modifications: ends and bridges not checked
notes: Synthetic analogue of human PP; introduced as additional Ala at position 0 and Lys at position 30, later in the same paragraph labelled 'Ala 0, Lys 19'
B13: compound of SEQ ID NO:348 (Ala 0, Lys19, Lys 30, code 4056385) (peptide)
peptide: B10 peptide with K1A, Q20K, M31K
notes: Synthetic analogue of human PP with additional Ala at position 0, Lys at 19 and Lys at 30
B14: compound of SEQ ID NO:56 (code 6653) (peptide)
peptide: B10 peptide with K1P
notes: as for B10
B15: compound of SEQ ID NO:168 (Ala 0, Ala 23 and Lys 30, code 7215) (peptide)
peptide: B10 peptide with K1A, D24A, M31K
notes: Synthetic analogue of human PP with additional Ala at position 0, Ala at 23 and Lys at 30
B16: compound of SEQ ID NO:702 (code 4058286) (peptide)
peptide: PAPLEAVYPGDNATPEQMARYYSELRRYINKLTRPRY
modifications: ends and bridges not checked
notes: Synthetic analogue of human PP; cited for Ala at position 5
B17: compound of SEQ ID NO:1090 (code 4059937) (peptide)
peptide: GAPLEPHAPGDNATPEEMAKYAAELRRYINKLTRPRY
modifications: ends and bridges not checked
notes: Synthetic analogue of human PP; cited for a change at position 7
B18: compound of SEQ ID NO:281 (Lys 30, code 4055855) (peptide)
peptide: B2 peptide with M30K, Q34P
notes: Synthetic analogue of human PP with Lys at position 30
B19: compound of SEQ ID NO:277 (Ala 23, code 4055747) (peptide)
peptide: B2 peptide with D23A, Q34P
notes: Synthetic analogue of human PP with Ala at position 23
B20: compound of SEQ ID NO:224 (Lys 19, code 4055291) (peptide)
peptide: B2 peptide with Q19K, Q34P
notes: Synthetic analogue of human PP with Lys at position 19
B21: compound of SEQ ID NO:9 (Ala 0, code 6433) (peptide)
peptide: B10 peptide with K1A
notes: Synthetic analogue of human PP with an additional Ala at position 0

Biological target: T1, human Y4 receptor (human, UniProt P50391 1-375)
T1 construct: whole, on cells; Used as a cell membrane preparation from transfected HEK-293T cells, not as intact cells; also called Human Y Receptor-4
Assay: 125I-PP displacement assay, human Y4 receptor membranes

T1 sequence (P50391 whole entry): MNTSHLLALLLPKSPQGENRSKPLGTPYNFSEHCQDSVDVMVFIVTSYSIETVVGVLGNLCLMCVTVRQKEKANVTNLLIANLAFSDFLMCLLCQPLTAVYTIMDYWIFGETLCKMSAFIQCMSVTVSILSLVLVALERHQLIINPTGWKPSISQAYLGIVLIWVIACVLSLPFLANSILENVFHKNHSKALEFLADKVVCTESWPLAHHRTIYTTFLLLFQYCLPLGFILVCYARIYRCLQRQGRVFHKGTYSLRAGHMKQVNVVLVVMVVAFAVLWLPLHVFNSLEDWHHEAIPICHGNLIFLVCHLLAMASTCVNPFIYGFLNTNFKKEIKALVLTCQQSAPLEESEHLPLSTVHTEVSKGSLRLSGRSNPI

binding result	Binder
binds	B1
binds	B2
binds	B3
binds	B4
binds	B5
binds	B6
binds	B7
binds	B8
binds	B9
binds	B10
binds	B11
binds	B12
binds	B13
binds	B14
binds	B15
binds	B16
binds	B17

Biological target: T1, human Y4 receptor
Assay: 125I-PP displacement assay, human Y4 receptor membranes; weaker reference compound

binding result	Binder
binds	B18
binds	B19
binds	B20
binds	B21
